Assay results taken from paper PMC8458290 (Nature Communications, 2021).

B1: nanobody C1 (monovalent VHH, pOPINO construct) (VHH)
VHH: QVQLVESGGGLVQPGGSLRLSCAASGFTNDFYSIAWFRQAPGKEREGVSWLSVSDNTPTYVDSVKDRFTISRHNANNTVYLQMNMLKPEDTAIYYCAAGRFAGRDTWPSSYDYWGQGTQVTVSS
B2: nanobody F2 (monovalent VHH, pOPINO construct) (VHH)
VHH: QVQLVESGGGLVQAGGSLRLACIASGRTFHSYVMAWFRQAPGKEREFVAAISWSSTPTYYGESVKGRFTISRDNAKNTVYLQMNRLKPEDTAVYFCAADRGESYYYTRPTEYEFWGQGTQVTVSS

Assays:
[1] = target: T1, Beta (B.1.351) RBD, biotinylated (SARS-CoV-2, Beta (B.1.351), N501Y | E484K | K417N, biotinylated (site not stated)); assay: SPR; conditions: both partners purified
T1 construct: also called Beta RBD; Beta-RBD

[2] = target: T2, Alpha (B.1.1.7) RBD, biotinylated (SARS-CoV-2, Alpha (B.1.1.7), N501Y, biotinylated (site not stated)); assay: SPR; conditions: both partners purified
T2 construct: also called Alpha RBD; RBD-Kent

Binder | Kd [1] [pM] | Kd [2] [pM] | T1/2 [2] [min] | T1/2 [1] [min]
B1 | 648 | 725 | 21 | –
B2 | 38 | 47 | 51 | 52
